± gives the uncertainty stated by the source.
Test: self-splicing fitness, log relative to wild type (ln ratio); higher = more splicing; Tetrahymena group I intron in knt gene, E. coli kanamycin selection, DiMSum; sequences stand for … in CUCUCU…GGAGGGAAAAGUUAUCAGGCAUGCACCUGGUAGCUAGUCUUUAAACCAAUAGAUUGCAUCGGUUUAAAAGGCAAGACCGUCAAAUUGCGGGAAAGGGGUCAACAGCCGUUCAGUACCAAGUCUCAGGGGAAACUUUGAGAUGGCCUUGCAAAGGGUAUGGUAAUAAGCUGACGGACAUGGUCCUAACCACGCAGCCAAGUCCUAAGUCAACAGAUCUUCUGUUGAUAUGGAUGCAGUUCACAGACUAAAUGUCGGUCGGGGAAGAUGUAUUCUUCUCAUAAGAUAUAGUCGGACCUCUCCUUAAUGGGAGCUAGCGGAUGAAGUGAUGCAACACUGGAGCCGCUGGGAACUAAUUUGUAUGCGAAAGUAUAUUGAUUAGUUUUGGAGUACUCGUGGUCG
Procedure, shortened: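 Six replicate transformations of E. coli BL21(DE3) with a pET-22b(+) library were grown overnight at 37°C or 30°C. The library randomised all eight P1ex-region intron nucleotides, the intron lying in the knt kanamycin-resistance gene, and plates were LB agar with or without 25 μg/mL kanamycin plus 100 μg/mL carbenicillin, 50 μM IPTG and 0.2% rhamnose. Pooled colonies were amplicon-sequenced on an Illumina HiSeq 2500, and fitness is the DiMSum error-weighted combination of wild-type-normalised replicate fold changes, kanamycin versus none.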

| Sequence | self-splicing fitness (ln) (30 °C) | self-splicing fitness (ln) (37 °C) |
| --- | --- | --- |
| GCGAAGCAAUAUUACGCGAC | -1.88 ± 0.17 | -1.1 ± 0.19 |
| ACUAAGCAAUAUUACGUGCU | -1.62 ± 0.073 | -1.06 ± 0.099 |
| CUAAAGCAAUAUUACGCGUG | -1.09 ± 0.075 | 0.243 ± 0.11 |
| GGCUAGCAAUAUUACGGUCG | 0.0358 ± 0.11 | -0.669 ± 0.12 |
| UGAUAGCAAUAUUACGGCCG | 0.151 ± 0.1 | 0.324 ± 0.15 |
| UUUCAGCAAUAUUACGUAUG | -0.689 ± 0.081 | -0.635 ± 0.11 |
| GGGUAGCAAUAUUACGAACC | -2.05 ± 0.39 | – |
| CACCAGCAAUAUUACGAUUU | -3.36 ± 0.15 | -1.52 ± 0.13 |
| UCUGAGCAAUAUUACGGUCU | -2.46 ± 0.21 | -2.96 ± 0.37 |
| CACAAGCAAUAUUACGGUAC | -4.11 ± 0.22 | -2.03 ± 0.17 |
| UACGAGCAAUAUUACGCUAG | – | -1.7 ± 0.46 |
| CCAAAGCAAUAUUACGGGGA | -3.41 ± 0.16 | -2.93 ± 0.17 |
| CGGCAGCAAUAUUACGAGCG | -0.946 ± 0.09 | -0.441 ± 0.11 |
| GGUAAGCAAUAUUACGGCAU | -0.173 ± 0.078 | 0.827 ± 0.11 |
| UAUCAGCAAUAUUACGUGUA | -0.198 ± 0.069 | 0.204 ± 0.079 |
| AUGAAGCAAUAUUACGCCCC | 0.963 ± 0.19 | 0.00961 ± 0.23 |
| CAGUAGCAAUAUUACGCGGA | -2.93 ± 0.24 | -1.64 ± 0.15 |
| CGGCAGCAAUAUUACGCCCA | 0.189 ± 0.12 | -0.0939 ± 0.14 |
| AGCAAGCAAUAUUACGGAGC | -2.67 ± 0.19 | -1.31 ± 0.24 |
| UUUGAGCAAUAUUACGGCGG | -1.04 ± 0.24 | -1.57 ± 0.28 |
| CAGAAGCAAUAUUACGUUGA | -2.84 ± 0.2 | -1.53 ± 0.15 |
| UUGCAGCAAUAUUACGCUGC | -3.93 ± 0.29 | -2.97 ± 0.38 |
| CGAGAGCAAUAUUACGGUAG | -1.73 ± 0.23 | -1.65 ± 0.33 |
| CUAAAGCAAUAUUACGGUGG | -0.649 ± 0.064 | -0.0443 ± 0.08 |
| GAAAAGCAAUAUUACGUACG | -1.16 ± 0.061 | -0.9 ± 0.079 |

| Sequence | self-splicing fitness (ln) (30 °C) | self-splicing fitness (ln) (37 °C) |
| --- | --- | --- |
| GCUAAGCAAUAUUACGGUUG | -2.99 ± 0.092 | -2.42 ± 0.098 |
| GUAUAGCAAUAUUACGCGAG | -1.31 ± 0.11 | -1.47 ± 0.12 |
| AGUGAGCAAUAUUACGCGGG | – | -2.1 ± 0.37 |
| GUUAAGCAAUAUUACGCACA | -0.425 ± 0.09 | -0.0375 ± 0.11 |
| UACCAGCAAUAUUACGUGGC | -4.31 ± 0.22 | -3.66 ± 0.2 |
| UCAUAGCAAUAUUACGAGCG | -1.95 ± 0.12 | -0.509 ± 0.13 |
| CAUUAGCAAUAUUACGGUCA | -2.02 ± 0.3 | -1.63 ± 0.3 |
| UUGGAGCAAUAUUACGUUGA | -3.57 ± 0.3 | -0.895 ± 0.26 |
| AAUCAGCAAUAUUACGUCUG | -1.16 ± 0.049 | -0.895 ± 0.065 |
| UAGUAGCAAUAUUACGACUC | -0.329 ± 0.16 | 0.405 ± 0.19 |
| UAUGAGCAAUAUUACGCUCG | -2.09 ± 0.21 | -2.2 ± 0.35 |
| CAGUAGCAAUAUUACGAAAG | -0.623 ± 0.099 | -0.726 ± 0.14 |
| UUGGAGCAAUAUUACGUGUG | -3.71 ± 0.2 | -2.38 ± 0.14 |
| GUUAAGCAAUAUUACGGUAU | -1.36 ± 0.11 | -0.895 ± 0.12 |
| ACAAAGCAAUAUUACGACAG | -1.34 ± 0.066 | -0.8 ± 0.084 |
| GCCCAGCAAUAUUACGUGGU | -4 ± 0.18 | -1.9 ± 0.14 |
| AGAGAGCAAUAUUACGGCAA | – | -1.48 ± 0.4 |
| CCGCAGCAAUAUUACGUAAG | 0.385 ± 0.056 | -0.112 ± 0.062 |
| CGGCAGCAAUAUUACGACGG | -0.297 ± 0.088 | 0.852 ± 0.15 |
| GUCCAGCAAUAUUACGUUUC | -0.538 ± 0.056 | -0.05 ± 0.074 |
| GCCUAGCAAUAUUACGGUCC | -3.85 ± 0.33 | -1.66 ± 0.24 |
| ACGCAGCAAUAUUACGUUUC | -3.87 ± 0.2 | -2.61 ± 0.25 |
| AUAUAGCAAUAUUACGUUCG | -1.57 ± 0.2 | -0.377 ± 0.27 |
| UCUAAGCAAUAUUACGUAUU | -3.09 ± 0.2 | -2.16 ± 0.2 |
